Experimental findings from PMC9506730 are described below.

This assay addresses T1, human Kir2.1 channel, wild type (human), P63252.
T1 chain: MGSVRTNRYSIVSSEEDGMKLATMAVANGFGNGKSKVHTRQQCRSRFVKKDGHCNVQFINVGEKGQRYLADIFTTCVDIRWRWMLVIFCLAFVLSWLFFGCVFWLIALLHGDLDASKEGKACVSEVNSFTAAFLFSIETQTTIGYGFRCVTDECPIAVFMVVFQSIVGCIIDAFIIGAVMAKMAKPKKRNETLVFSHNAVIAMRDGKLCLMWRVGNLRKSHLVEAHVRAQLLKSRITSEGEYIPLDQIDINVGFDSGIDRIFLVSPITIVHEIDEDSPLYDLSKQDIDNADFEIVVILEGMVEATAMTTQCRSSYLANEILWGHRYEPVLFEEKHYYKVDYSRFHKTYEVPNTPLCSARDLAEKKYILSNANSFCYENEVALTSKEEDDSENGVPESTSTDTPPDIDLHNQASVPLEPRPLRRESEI
As to the kind of experiment: SEC. To be noted: remark: other sources report otherwise.

B1: human Kir2.1 channel, wild type, P63252 1-427 (natural protein)
chain: MGSVRTNRYSIVSSEEDGMKLATMAVANGFGNGKSKVHTRQQCRSRFVKKDGHCNVQFINVGEKGQRYLADIFTTCVDIRWRWMLVIFCLAFVLSWLFFGCVFWLIALLHGDLDASKEGKACVSEVNSFTAAFLFSIETQTTIGYGFRCVTDECPIAVFMVVFQSIVGCIIDAFIIGAVMAKMAKPKKRNETLVFSHNAVIAMRDGKLCLMWRVGNLRKSHLVEAHVRAQLLKSRITSEGEYIPLDQIDINVGFDSGIDRIFLVSPITIVHEIDEDSPLYDLSKQDIDNADFEIVVILEGMVEATAMTTQCRSSYLANEILWGHRYEPVLFEEKHYYKVDYSRFHKTYEVPNTPLCSARDLAEKKYILSNANSFCYENEVALTSKEEDDSENGVPESTSTDTPPDIDLHNQASVPLEPRPLRRESEI
The term stoichiometry N denotes a count of units in the complex or per binding partner. B1 came in with a stoichiometry N of 4.
